Assay in all cases: EMSA
In series [1] the target is 4A alanine mutant bZIP (GCN4 basic region - C/EBP zipper) (artificial (yeast GCN4 / C/EBP)) (UniProt P03069). Particulars: group statement.
In series [2] the test system is wt bZIP (GCN4 basic region - C/EBP leucine zipper hybrid), synthetic (artificial (yeast GCN4 / C/EBP)).
Series [3] addresses 11A alanine mutant bZIP (GCN4 basic region - C/EBP zipper) (artificial (yeast GCN4 / C/EBP)) (UniProt P03069). Particulars: group statement.
Series [4] addresses 18A alanine mutant bZIP (GCN4 basic region - C/EBP zipper) (artificial (yeast GCN4 / C/EBP)) (UniProt P03069). Particulars: group statement.
The subject of series [5] is wt bZIP (GCN4 basic region - C/EBP leucine zipper hybrid), expressed (artificial (yeast GCN4 / C/EBP)).
Where [6] appears, read: also DNase I footprinting (p65).
Setting [7] is: higher-order bandshifts excluded.

A value given as a limit tells only on which side of the number the result lay.

“TGCAGGAAGCACGTAGTGAAGGTT (double strand) [HRE]”: the binding signal (fold weaker than AP-1) in series [1] (setting [6]), in series [3] (setting [6]) and in series [4] (setting [6]) was 7 each time. This sequence also registered a Kd in series [2] (saturation not achieved) of 1400 nM.
Regarding “TGCAGGAATTGCTGAAGGTT (double strand) [C/EBP half site]”, the Kd in series [2] (saturation not achieved) was over 5000 nM; in series [5] (saturation not achieved) it was over 1500 nM.
Take “GATCTGGATGACTCATTTTTTTTT (double strand) [WT AP-1 (his3 flanks)]”: the Kd in series [2] (apparent monomeric Kd, 2 mM MgCl2, 1 mM CaCl2, pH 7.5, 200 mM guanidine HCl) worked out at 13 nM.
For “TGCAGGAACCACGTGGTGAAGGTT (double strand) [Max E-box]”, the binding signal (fold weaker than AP-1) in series [1] (both E-box sites), in series [3] (both E-box sites) and in series [4] (both E-box sites) was 10 each time. The same sequence registered a Kd in series [2] (saturation not achieved) of 840 nM.
As for “TGCAGGAATTGCGCAATGAAGGTT (double strand) [C/EBP]”, the binding signal (fold weaker than AP-1) in series [1] (setting [6]), in series [3] (setting [6]) and in series [4] (setting [6]) was 3 each time. For the same sequence, the Kd in series [2] (apparent monomeric Kd, pH 7.5) came to 120 nM; in series [5] (setting [7]), 29 nM.
On to “TGCAGGAATGACGTCATGAAGGTT (double strand) [CRE]”, for which the Kd in series [2] (apparent monomeric Kd, pH 7.5) amounted to 12 nM.
Turning to “TGCAGGAATCACGTGATGAAGGTT (double strand) [Arnt E-box]”, the binding signal (fold weaker than AP-1) in series [1] (both E-box sites), in series [3] (both E-box sites) and in series [4] (both E-box sites) was 10 throughout. The Kd in series [2] (saturation not achieved) was 570 nM.
In the case of “TGCAGGAAGACTAACCTGAAGGTT (double strand) [Partial site / NON2]”, the Kd in series [2] (apparent monomeric Kd, pH 7.5) came to 280 nM.
“TGCAGGAATGACTCATTGAAGGTT (double strand) [AP-1]”: the Kd in series [2] (apparent monomeric Kd, pH 7.5) was determined as 13 nM; in series [5] (higher-order bandshifts excluded, FIG. 6 legend gives 568 nM for wt bZIP with AP-1 in another experiment (TKMC buffer)), 4.8 nM.
In turn, “TGCAGGAATCACTGAAGGTT (double strand) [Arnt E-box half site]” had a Kd in series [2] (saturation not achieved) of over 4000 nM.
Regarding “TGCAGGAATTGCGTGATGAAGGTT (double strand) [XRE1]”, the binding signal (fold weaker than AP-1) in series [1] (setting [6]), in series [3] (setting [6]) and in series [4] (setting [6]) was 7 each time. Moreover, the Kd in series [2] (apparent monomeric Kd, pH 7.5) came out at 240 nM.
Turning to “TGCAGGAATGACTGAAGGTT (double strand) [AP-1 half site]”, the Kd in series [2] (apparent monomeric Kd, pH 7.5) came out at 84 nM; in series [5] (setting [7]), 23 nM.

The values above are taken from US20070009938.
